# Measured values as given in the supplement of paper PMC7125110.
# ± gives the standard error. This sample holds only a part of the variants without activity.
# B1: glmS ribozyme (parent)
# chain: AUAAAAGCGCCAGAACUACAGAAAUGUAGUUGACGAGGAGGAGGUUUAUCGAAUUUUCGGCGGAUGCCUCCAAA
# Assays:
# Conditions in all cases: with glucosamine-6-phosphate
# glucosamine-6-phosphate [1] = variants of: B1; assay: self-cleavage kobs at 40 uM GlcN6P; higher = faster cleavage; RNA array
# Method in brief: (§1)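 Barcoded ribozyme variants were transcribed in situ on sequenced MiSeq chips by E. coli RNA polymerase. At 37 °C, a hybridised Cy3 probe tracked them while glucosamine-6-phosphate (40 μM to 10 mM) in HEPES/KCl/Mg(OAc)2 buffer flowed in and tiles were imaged over ~14 h. Per-tile medians of signals normalised to baseline and to non-cleaving reference variants were fit to one- or two-exponential decays, giving kobs. kcat and KM came from weighted Michaelis–Menten fits across concentrations.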
# glucosamine-6-phosphate [2] = variants of: B1; assay: self-cleavage kobs at 160 uM GlcN6P; higher = faster cleavage; RNA array
# Method in brief: as §1
# glucosamine-6-phosphate [3] = variants of: B1; assay: self-cleavage kobs at 640 uM GlcN6P; higher = faster cleavage; RNA array
# Method in brief: as §1
# glucosamine-6-phosphate [4] = variants of: B1; assay: self-cleavage kobs at 2500 uM GlcN6P; higher = faster cleavage; RNA array
# Method in brief: as §1
# glucosamine-6-phosphate [5] = variants of: B1; assay: self-cleavage kobs at 10000 uM GlcN6P; higher = faster cleavage; RNA array
# Method in brief: as §1
Variant,self-cleavage kobs at 40 uM GlcN6P (glucosamine-6-phosphate [1]) [s⁻¹],self-cleavage kobs at 160 uM GlcN6P (glucosamine-6-phosphate [2]) [s⁻¹],self-cleavage kobs at 640 uM GlcN6P (glucosamine-6-phosphate [3]) [s⁻¹],self-cleavage kobs at 2500 uM GlcN6P (glucosamine-6-phosphate [4]) [s⁻¹],self-cleavage kobs at 10000 uM GlcN6P (glucosamine-6-phosphate [5]) [s⁻¹]
AUAAAAGCGCCUGAAGUACAGAAAUGUAGUUGACGAGGAGGAGGUUUAUCGAAUUUUCGGCGGAUGCCUCCAAA,0.000539 ± 9e-05,0.000549 ± 0.00013,0.00491 ± 0.0008,0.00786 ± 0.0024,0.0117 ± 0.0031
AUAAAAGCGCCAGAACUACAGAAAUGUAGUUGACGAGGAGGAGGUUAAUCGAAUUUUCGGCGGAUGCAUCCAAA,< 1e-05,,,,
AUAAAAGCGCCAGAACUACAGAAAUGUAGUUGACGAUAAGGAGGUUUAUCGAAUUUUCGGCGGAUGCCUCCAAA,< 1e-05,,,,< 1e-05
AUAAAAGCGCCUGAACUACAGAAAUGUAGUUGACGAGGAGGAGGUUUAUCGAAUUUUCGGCGAAUGCCUCCAAA,< 1e-05,< 1e-05,< 1e-05,< 1e-05,< 1e-05
AUAAAAGCGCCAGAACUACAGAAAUGUAGUGGACGAGGGGGAGGUUUAUCGAGUUUUCGGCGGAUGCCUCCAAA,0.000493 ± 0.00012,,0.00385 ± 0.0009,0.0115 ± 0.0049,
AUAAAAGCGCCAGUACUACAGAAAUGUAGUUGACGAAGAGGAGGUUUAUUGAAUUUUCGGCGCAUGCCUCCAAA,< 1e-05,,,,
AUAAAAGCGCCAGAACUACAGAAAUGUAGUUGACGAUGAGGAGGUUUAUCGAAGUUUCGGCGGUUGCCUCCAAA,< 1e-05,,,,< 1e-05
AUAAAAGCGCCAGAACUACAGAAAUGUAGUUGACCAGGCGGAGGUUUAUCGAAUUUUCGGCGGAUGCCUCCAAA,< 1e-05,< 1e-05,< 1e-05,< 1e-05,< 1e-05
AUAAAAGCGUCAGAACUACAGAAAUGUAGUUGACGAGGAGGAGGCUUAUCGAAUUUUCGGCGAAUGCCUCCAAA,< 1e-05,< 1e-05,< 1e-05,,
AUAAAAGAGCCAGAACUACAGAAAUGUAGUUGACGAGGAGGACGUUUAUCGAAUUUUCGGCGGAUGUCUCCAAA,< 1e-05,,< 1e-05,< 1e-05,
AUAAAAGCGCCAGAACUACAGAAAUGUAGUUGACGAGGAGGAGGUUUUUCGAAUUUUCGGCGAAUGCCUCCAAA,< 1e-05,,< 1e-05,< 1e-05,< 1e-05
AUAAAAGCGCCAGAACUACAGAAAUGUAGUUGACGAGGAGGAAGUUGAUCGAAUUUUCGGCGGAUGCCUCCAAA,< 1e-05,,< 1e-05,,
AUAAAAGCGCCAGAACUACAGAAAUGUAGUUGACAGGGAGGAGGUUUGUCGAGUUUUCGGCGGAUGCCUCCAAA,< 1e-05,,,,< 1e-05
